Test: yeast display, Sf9 membrane polyspecificity reagent, FACS + sequencing; frameworks hold sequencing errors
How it was run: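 Using colony PCR, genes from sorted yeast display clones were amplified, then sequenced on MiSeq at 2 × 250 and filtered by CDR length. The clones had been stained with 10% biotinylated, detergent-solubilized Sf9 membrane reagent for 1 hour at 4 °C and sorted by FACS into low and high (top ~1%) gates on anti-HA and streptavidin fluorescence. Polyreactivity labels come from the gate of origin.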

Sequence | polyreactivity (PSR sort gate)
QVQLVESGGGLVQAGGSLRLSCAASGSIFWYYAMGWYRQAPGKERELVAAISGSGTRTYYADSVKGRFTISRDNAKNTVYLQMNSLKPEDTAVYYCAATAVRQSGRYLSSSGYDYWGQGTQVTVSS | high polyreactivity
QVQLVESGGGLVQAGGSLRLSCAASGSIFWYYAMGWYRQAPGKERELVAAITGSGVRTYYADSVKGRFTISRDNAKNTVYLQMNSLKPEDTAVYYCNAVSSHSFYFYGDHNYWGQGTQVTVSS | low polyreactivity
QVQLVESGGGLVQAGGSLRLSCAASGSIFWYYAMGWYRQAPGKERELVARITFSGSRTHYADSVKGRFTISRDNAKNTVYLQMNSLKPEDTSVYYCATDTVYGNDYWGQGTQVTVSS | low polyreactivity
QVQLVESGGGLVQAGGSLRLSCAASGSIFWYYAMGWYRQAPGKERELVATITSGGTNYADSVKGRFTISRDNAKNTVYLQMNSLKPEDTAVYYCNADVSWSRIFYLGYDSNDYWGQGTQVTVSS | low polyreactivity
QVQLVESGGGLVQAGGSLRLSCAASGSIFWYYGMGWYRQAPGKERELVAAISSGGSTNYADSVKVRFAISRDNAKNTVYLQMNSLKPEDTAVYYCAVRFTFPRYPASYSRYYYWGQGTQVTVSS | high polyreactivity
QVQLVESGGGLVQAGGSLRLSCAASGSIFYANAMGWYRQAPGKERELVAAIDGGSTYYADSVKGRFTISRDNAKNTVYLQMNSLKPEDTAVYYCAADYFNYRGYTYLGDYWGQGTQVTVSS | low polyreactivity
QVQLVESGGGLVQAGGSLRLSCAASGSIFYAYAMGWYRQAPGKERELVATISSVGSTYYADSVKGRFTISRDNAKNTVYLQMNSLKPEDTAVYYCAKQRIVVYKTGYDYWGQGTQVTVSS | low polyreactivity
QVQLVESGGGLVQAGGSLRLSCAASGSIFYAYAMGWYTQAPGKERELVATISSVGSTYYADSVKGRFTISRDNAKNTVYLQMNSLKPEDTAVYYCAKQRIVVYKTGYDYWGQGTQVTVSS | low polyreactivity
QVQLVESGGGLVQAGGSLRLSCAASGSIFYAYAMRWYRQAPGKERELVAVINSGGSTYYADSVKGRFTISRDNAKNTVYLQMHSLKPEDTAVYYCNATQDRGKYDYPPRGRGYYYWGQGTQVTVSS | high polyreactivity
QVQLVESGGGLVQAGGSLRLSCAASGSIFYDAMGWYRQAPGKERELVAAITSSGGDTSYADSVKGRCTISRDNAKNTVYLQMNSLKPEDTAGYYCNADTYYVEYTAFDYWGQGTQVTVSS | low polyreactivity
QVQLVESGGGLVQAGGSLRLSCAASGSIFYDNAMGWYRPAPGKERELVATIRGGGNTYYADSVKGRFTISRDNAKNTVYLQMNSLKPEDTAVYYCSKQSDFPGVPLVYGVYGYDYWGQGTQVTVSS | low polyreactivity
QVQLVESGGGLVQAGGSLRLSCAASGSIFYDNAMGWYRQAPGKERELVAAIRGRGGSTYYADSVKGRFTISRDNAKNTVYLQMNSLKPVDTAVYYCAAERPIAVVRYYTYYYWGQGTQVTVSS | high polyreactivity
QVQLVESGGGLVQAGGSLRLSCAASGSIFYDNAMGWYRQAPGKERELVASIRYSGVRTYYADSVKGRFTISRDNAKNTVYLQMNSLKPEDTAVYYCAADVYRQFYPFKSDYWGQGTQVTVSS | high polyreactivity
QVQLVESGGGLVQAGGSLRLSCAASGSIFYDNAMGWYRQAPGKERELVATIRGGGNTYYADSVKGRFTISRDNAKNTVYLQMNSLKPEDTAVYYCAKQSDFPGVPLVYGVYGYDYWGQGTQVTVSS | low polyreactivity
QVQLVESGGGLVQAGGSLRLSCAASGSIFYDYAMGWYRQAPGKERELVAAINSGDSTYYADSVKGRFTISRDNAKNTVYLQMNSLKPEDTAVYYCAATYFSPYIEYDYWGQGTQVTVSS | low polyreactivity
QVQLVESGGGLVQAGGSLRLSCAASGSIFYDYAMGWYRQAPGKERELVAALTNDDSSTYYADSVKGRFTISRDNAKNTVYLQMNSLKPEDTAVYYCRFKYAVAHQFWVYRYDYWGQGTQVTVSS | low polyreactivity
QVQLVESGGGLVQAGGSLRLSCAASGSIFYDYAMGWYRQAPGKERELVADITDDSTNYADSVKGRFTISRDNAKNTVYLQMNSLKPEDTAVYYCAVDWYWGWYWDGGVLTYYYWGQGTQVTVSS | low polyreactivity
QVQLVESGGGLVQAGGSLRLSCAASGSIFYDYEMGWYRQAPGKERELVASINTGGSTNYADSVKGRFTISRDNAKNTVYLKMNSLKPEDTAVYYCNAPRGYPTSANHLDYWGQGTQVTVSS | low polyreactivity
QVQLVESGGGLVQAGGSLRLSCAASGSIFYENAMGWYRKAPGKEREFVATIDLIGDRTYYADSVKGRFTISRDNAKNTVYLQMNSLKPEDTAVYYCAAERVGVFFRYDYWGQGTQVTVSS | low polyreactivity
QVQLVESGGGLVQAGGSLRLSCAASGSIFYFNAMGWYRQAPGKERELVARISGSSGRTYYADSVKGRFTISRDNAKNTVYLQMNSLKPEDTAVYYCAARYYTSATMDYWGQGTQVTVSS | high polyreactivity

Sequence | polyreactivity (PSR sort gate)
QVQLVESGGGLVQAGGSLRLSCAASGSIFYFNAMGWYRQAPGKERELVASITSGGSTNYADSVKGRFTISRDNAKNTVYLQMNSLKPEDTAVYYCNARFPYLSRWLVRGLASYDYWGQGTQVTVSS | low polyreactivity
QVQLVESGGGLVQAGGSLRLSCAASGSIFYFYARGWYRLAPGKERELVAAIRFTGGTTYYADSVKGRFTISRDNAKNTVDLQMNSLKPEDTADYYCAKQTSYWSRGFDYWGQGTQVTVSS | low polyreactivity
QVQLVESGGGLVQAGGSLRLSCAASGSIFYGNAMGGYRQAPGKERELVASITYSGGNTQYADSVKGRFTISRDNAKNTVYLQMNSLKPEVTAVYYCNARRYGVDTGWRQGLDSWGQGTQVTVSS | low polyreactivity
QVQLVESGGGLVQAGGSLRLSCAASGSIFYGNAMGWYRPAPGKERELVAGITSGVGTNYADSVKGRFTISRDNAKNTVYLQMNSLKPEDTAVYYCAARVYRYRHYDYWGQGTQVTVSS | high polyreactivity
QVQLVESGGGLVQAGGSLRLSCAASGSIFYGNAMGWYRQAPGKEREFVAAINWSGARTYYADSVKGRFTISRDNAKNTVSLQMNSLKPEDTAVYYCAAGRPFSFRYEFDYWGQGTQVTVSS | high polyreactivity
QVQLVESGGGLVQAGGSLRLSCAASGSIFYGNAMGWYRQAPGKEREFVAGISWYGGSTYYADSVKGRFTISRDNAKNTVYLQMNSLKPEDTAVYYGATVADEPRAYSGYEESDYWGQGTQVTVSS | low polyreactivity
QVQLVESGGGLVQAGGSLRLSCAASGSIFYGNAMGWYRQAPGKERELVARISWSGSNTRYADSVKGRFTISRDNAKNTVYLQMNSLKPEDTAVYYCNVKPSARGSPLYDYWGQGTQVTVSS | high polyreactivity
QVQLVESGGGLVQAGGSLRLSCAASGSIFYGNAMGWYRQAPGKERELVASITYSGGTTNYADSVKGRFTISRDNAKNTVYLQMNSLKPEDTAVYYCNADIYPDRYGSTNYDFNYWGQGTQVTVSS | low polyreactivity
QVQLVESGGGLVQAGGSLRLSCAASGSIFYGYAMGWYRQAPGKEREFVAGIDSSGGSTSYADSVKGRFTISRDNAKNTVYLQMNSLKPEDTAVYYCNAPDPSDQHGDYWGQGTQVTVSS | low polyreactivity
QVQLVESGGGLVQAGGSLRLSCAASGSIFYGYAMGWYRQAPGKERELVAAIRSRGGSTYYADSVKGRFTNSRDNEKNTVYLQMKCLKPEDTAVYYCNAVCRARTLCSNTYGYWGQGTQVSVSS | high polyreactivity
QVQLVESGGGLVQAGGSLRLSCAASGSIFYGYAMGWYRQAPGKERELVAAISGGGRTNYADSVKGRFTISRDNAKNTVYLQMNSLKPEDTAVYYCARRSQRGIYSMYYWGQGTQVTVSS | low polyreactivity
QVQLVESGGGLVQAGGSLRLSCAASGSIFYGYAMGWYRQAPGKERELVAAISRGGSTYADSVKGRFTISRDNAKNTVYLQMNSLKPEDTAVYYCARRYWNCPLRGWYGYWGQGTQVTVSS | high polyreactivity
QVQLVESGGGLVQAGGSLRLSCAASGSIFYGYAMGWYRQAPGKERELVAAISRRGGSTYYADSVKGRFTISRDIAKNTVDLQMNSLKPEDTAVYYCAAVGLWYEYYYWGQGTQVTVSS | high polyreactivity
QVQLVESGGGLVQAGGSLRLSCAASGSIFYGYAMGWYRQAPGKERELVASITSSGGSTYYADSVKGRFTISRDNAKNTVYLQMNSLKPEDTAVYYCNADGRPDWYVVRGGFEYWGQGTQVTVSS | low polyreactivity
QVQLVESGGGLVQAGGSLRLSCAASGSIFYGYAMGWYSQAPGKERELVAAISSSGGSTYYADSVKGRFTISRDNAKNTVYLQMNSLKTEDTAVDYCAADWDFVNGWFNYWGKGTQVTVSS | high polyreactivity
QVQLVESGGGLVQAGGSLRLSCAASGSIFYGYDMGWYRQAPGKERELVAAITIGGGTTYYADSVKGRFTISRDNAKNTVYLQMNSLKPEDTAVYYCAAEFYYTIYSNKVGYDYWGQGTQVTVSS | high polyreactivity
QVQLVESGGGLVQAGGSLRLSCAASGSIFYHNAMGWYRQAPGKERELVAAITSRGGRTTYADSVKGRFTISRDNAKNTVYLQMNSLKPEDTAVYYCNAVYTGYSYISRVDYWGQGTQVTVSS | low polyreactivity
QVQLVESGGGLVQAGGSLRLSCAASGSIFYHNSMGWYRQAPGKERELVAAITSGGSTHYADSVKGRFTISRDNAKNTVYLQMNSLKPEDTAVYYCNARDRRRTNLLDYWGQGTQVTVSS | low polyreactivity
QVQLVESGGGLVQAGGSLRLSCAASGSIFYHYAMGWYRQAPGKERELVAAISQSGGGTYYADSVKGRFTISRDNAKNTVYLQMNSLKPEDTAVYYCIRLSKQKQEFDYWGQGTQVTVSW | high polyreactivity
QVQLVESGGGLVQAGGSLRLSCAASGSIFYHYAMGWYRQAPGKERELVAAITITGGSTYYADSVKGRFTISRDNAKNTVYLQMNSLKPEDTAVYYCARKWYVHYNYWGQGTQVTVSS | high polyreactivity
